This note sets out measurements from patent US20060099150A1.

For test [1], the target named is pIgR Domain 6 GST (D6-GST) fusion protein, species not stated (Schistosoma japonica) [GST: P08515]. Kind of test: SPR BIAcore, 1:1 Langmuir global fit 62.5-1000 nM; ligand not named.
Test [2] has as its target pIgR expressed on transfected MDCK cells. Kind of test: cell-based or functional assay.

pIgR Domain 6 GST (D6-GST) fusion protein, species not stated (Schistosoma japonica) [GST: P08515], sequence (P08515 whole entry, the tested form may be a part): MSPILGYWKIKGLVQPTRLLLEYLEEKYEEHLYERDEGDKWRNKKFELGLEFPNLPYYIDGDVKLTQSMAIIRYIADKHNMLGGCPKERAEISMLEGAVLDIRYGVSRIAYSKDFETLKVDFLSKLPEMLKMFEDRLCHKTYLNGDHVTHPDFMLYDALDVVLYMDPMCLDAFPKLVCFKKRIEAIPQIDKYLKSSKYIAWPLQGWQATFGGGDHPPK

B1: sFv5AF (scFv)
scFv: DYKAKQVQLVQSGGGVVQPGRSLRLSCAASGFTFSSYAMHWVRQAPGKGLEWVSAISGSGGSTYYADSVKGRFTISRDNAKNSLYLQMNSLRAEDTAVYYCARDTRGYFDLWGRGTLVTVSSGGGGSGGGGSGGGGSSELTQDPAMSVALGQTVRITCQGDSLRKYHASWYQQRPRQAPRLVVYGKNERPSGIPERFSGSTSGDTASLTISGLQAEDEADYYCHSRDSNADLVVFGGGTKVTVLGAAAEQKLISEEDLNGAAHHHHHH
Take B1: in test [1], the Ka came to 4.47e+06 M⁻¹; the Kd (in general, the concentration at which binding is half-saturated) stood at 224 nM; the koff (commonly a measure of how fast the partners let go of each other) is 0.00464 s⁻¹; the on-rate constant (kon) (in general, the second-order rate constant of association) turned out to be 27100 M⁻¹ s⁻¹. Besides, the transcytosis on pIgR expressing MDCK cells overnight in test [2] is 2%.
